Key:
Experiment in all cases: biochemical
Assay type in all cases: biochemical
266 human kinases [1] = biological target: 266 human kinases (Homo sapiens, UniProt P00519, H396P); details: Abl(H8396P)(h); 100 μM
In short: (§1)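 Read-out by scintillation counting of radiolabelled, positively charged substrate bound to negatively charged filter; activity normalised to 100% control. Phosphate transferred from radiolabelled ATP.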

266 human kinases [2] = biological target: 266 human kinases (Homo sapiens, UniProt Q9H422); details: HIPK3(h); 100 μM
In short: as §1

266 human kinases [3] = biological target: 266 human kinases (Homo sapiens, UniProt O96017); details: CHK2(h); 100 μM
Chain of 266 human kinases (Homo sapiens, UniProt O96017) (O96017 whole entry): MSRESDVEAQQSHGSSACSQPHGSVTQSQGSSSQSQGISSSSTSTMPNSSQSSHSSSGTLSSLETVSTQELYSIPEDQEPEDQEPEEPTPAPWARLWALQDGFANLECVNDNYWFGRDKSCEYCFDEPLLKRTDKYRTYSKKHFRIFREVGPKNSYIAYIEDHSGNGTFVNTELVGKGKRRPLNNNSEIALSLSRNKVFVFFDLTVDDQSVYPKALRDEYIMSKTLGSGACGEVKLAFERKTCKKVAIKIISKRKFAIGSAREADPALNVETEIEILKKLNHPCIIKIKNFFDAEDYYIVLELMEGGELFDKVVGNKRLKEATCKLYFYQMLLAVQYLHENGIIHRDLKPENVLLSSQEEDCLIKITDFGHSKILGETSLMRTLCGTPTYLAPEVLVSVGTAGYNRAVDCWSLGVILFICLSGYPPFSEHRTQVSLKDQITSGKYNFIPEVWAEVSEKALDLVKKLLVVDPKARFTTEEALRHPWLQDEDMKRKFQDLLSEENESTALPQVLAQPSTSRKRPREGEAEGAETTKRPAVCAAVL
In short: as §1

266 human kinases [4] = biological target: 266 human kinases (Homo sapiens, UniProt P53355); details: DAPK1(h); 100 μM
In short: as §1

266 human kinases [5] = biological target: 266 human kinases (Homo sapiens, UniProt P57059); details: SIK(h); 100 μM
Chain of 266 human kinases (Homo sapiens, UniProt P57059) (P57059 whole entry): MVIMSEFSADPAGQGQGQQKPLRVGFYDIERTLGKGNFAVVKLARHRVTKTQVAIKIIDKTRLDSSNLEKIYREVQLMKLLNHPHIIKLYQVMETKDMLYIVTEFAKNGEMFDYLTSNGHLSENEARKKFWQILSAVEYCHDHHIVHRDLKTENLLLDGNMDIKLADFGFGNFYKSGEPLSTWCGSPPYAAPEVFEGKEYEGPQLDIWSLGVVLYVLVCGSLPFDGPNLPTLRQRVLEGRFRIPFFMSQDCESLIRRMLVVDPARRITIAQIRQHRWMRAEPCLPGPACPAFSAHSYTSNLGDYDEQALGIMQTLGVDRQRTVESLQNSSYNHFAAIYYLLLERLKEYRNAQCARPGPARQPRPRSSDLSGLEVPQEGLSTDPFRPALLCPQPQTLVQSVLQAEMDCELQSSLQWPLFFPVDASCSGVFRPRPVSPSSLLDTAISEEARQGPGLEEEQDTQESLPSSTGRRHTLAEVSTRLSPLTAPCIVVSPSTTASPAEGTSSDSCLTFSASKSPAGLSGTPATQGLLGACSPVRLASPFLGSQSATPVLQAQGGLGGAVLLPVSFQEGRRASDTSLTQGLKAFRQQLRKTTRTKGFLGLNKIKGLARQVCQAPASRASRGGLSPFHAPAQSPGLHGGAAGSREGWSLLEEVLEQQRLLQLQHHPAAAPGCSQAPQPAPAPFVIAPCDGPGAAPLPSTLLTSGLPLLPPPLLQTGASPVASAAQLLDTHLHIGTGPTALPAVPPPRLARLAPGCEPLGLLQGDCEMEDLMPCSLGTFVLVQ
In short: as §1

266 human kinases [6] = biological target: 266 human kinases (Homo sapiens, UniProt Q8N4C8); details: MINK(h); 100 μM
Chain of 266 human kinases (Homo sapiens, UniProt Q8N4C8) (Q8N4C8 whole entry): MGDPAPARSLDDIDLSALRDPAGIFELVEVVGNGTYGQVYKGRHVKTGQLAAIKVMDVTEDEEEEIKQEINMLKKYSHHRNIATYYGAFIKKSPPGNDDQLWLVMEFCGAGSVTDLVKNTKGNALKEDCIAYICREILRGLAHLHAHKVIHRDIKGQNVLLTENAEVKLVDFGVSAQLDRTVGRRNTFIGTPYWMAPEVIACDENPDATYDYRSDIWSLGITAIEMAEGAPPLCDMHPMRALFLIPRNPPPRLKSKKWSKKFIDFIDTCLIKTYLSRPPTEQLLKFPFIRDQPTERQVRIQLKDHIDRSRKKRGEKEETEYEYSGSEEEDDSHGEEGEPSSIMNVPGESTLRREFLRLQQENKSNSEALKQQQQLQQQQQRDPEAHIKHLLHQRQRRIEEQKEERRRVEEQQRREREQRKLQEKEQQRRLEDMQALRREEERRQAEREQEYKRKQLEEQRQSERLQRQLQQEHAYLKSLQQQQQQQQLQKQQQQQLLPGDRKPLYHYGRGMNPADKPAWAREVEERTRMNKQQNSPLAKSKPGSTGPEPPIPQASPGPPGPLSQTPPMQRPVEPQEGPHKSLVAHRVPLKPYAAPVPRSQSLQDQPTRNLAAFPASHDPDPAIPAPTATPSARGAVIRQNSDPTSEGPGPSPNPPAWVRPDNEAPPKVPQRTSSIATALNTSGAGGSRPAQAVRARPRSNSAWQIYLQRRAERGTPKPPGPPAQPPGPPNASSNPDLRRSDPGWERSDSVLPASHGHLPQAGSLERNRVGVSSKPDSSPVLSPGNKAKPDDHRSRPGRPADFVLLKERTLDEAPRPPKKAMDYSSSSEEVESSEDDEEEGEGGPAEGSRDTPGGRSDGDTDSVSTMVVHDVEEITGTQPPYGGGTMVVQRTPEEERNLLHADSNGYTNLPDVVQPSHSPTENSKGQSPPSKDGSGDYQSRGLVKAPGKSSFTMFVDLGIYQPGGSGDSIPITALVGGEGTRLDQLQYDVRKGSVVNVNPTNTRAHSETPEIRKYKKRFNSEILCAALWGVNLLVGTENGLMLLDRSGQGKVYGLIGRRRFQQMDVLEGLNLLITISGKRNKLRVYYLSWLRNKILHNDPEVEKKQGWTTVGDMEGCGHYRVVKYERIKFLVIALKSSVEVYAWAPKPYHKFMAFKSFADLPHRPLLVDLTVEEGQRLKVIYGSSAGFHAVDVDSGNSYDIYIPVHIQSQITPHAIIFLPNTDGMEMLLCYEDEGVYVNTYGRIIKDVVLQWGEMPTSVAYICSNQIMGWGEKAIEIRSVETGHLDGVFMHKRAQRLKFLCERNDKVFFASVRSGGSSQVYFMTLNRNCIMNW
In short: as §1

266 human kinases [7] = biological target: T1, 266 human kinases (Homo sapiens, UniProt O15111); details: IKKα(h); 100 μM
T1 sequence (O15111 1-745): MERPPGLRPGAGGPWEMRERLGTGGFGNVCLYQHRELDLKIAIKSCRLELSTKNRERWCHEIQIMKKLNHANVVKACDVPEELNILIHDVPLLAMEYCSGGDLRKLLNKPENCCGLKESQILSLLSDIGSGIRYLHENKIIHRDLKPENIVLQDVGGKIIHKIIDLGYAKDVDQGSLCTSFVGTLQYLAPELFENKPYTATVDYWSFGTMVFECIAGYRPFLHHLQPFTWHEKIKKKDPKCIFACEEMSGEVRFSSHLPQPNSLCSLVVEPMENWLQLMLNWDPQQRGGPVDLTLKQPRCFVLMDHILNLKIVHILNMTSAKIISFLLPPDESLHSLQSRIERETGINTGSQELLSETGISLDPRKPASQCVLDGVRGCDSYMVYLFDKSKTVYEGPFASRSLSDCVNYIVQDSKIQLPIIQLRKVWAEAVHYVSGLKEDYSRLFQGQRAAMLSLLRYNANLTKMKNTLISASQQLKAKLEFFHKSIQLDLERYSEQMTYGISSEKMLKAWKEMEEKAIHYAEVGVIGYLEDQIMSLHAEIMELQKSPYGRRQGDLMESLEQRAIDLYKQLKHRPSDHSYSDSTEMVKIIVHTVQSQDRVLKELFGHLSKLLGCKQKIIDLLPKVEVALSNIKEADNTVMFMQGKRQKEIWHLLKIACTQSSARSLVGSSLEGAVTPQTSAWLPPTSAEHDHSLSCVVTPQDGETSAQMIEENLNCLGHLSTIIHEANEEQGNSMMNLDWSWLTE
In short: as §1

266 human kinases [8] = biological target: T2, 266 human kinases (Homo sapiens, UniProt Q8IW41); details: PRAK(h); 100 μM
T2 sequence (Q8IW41 1-473): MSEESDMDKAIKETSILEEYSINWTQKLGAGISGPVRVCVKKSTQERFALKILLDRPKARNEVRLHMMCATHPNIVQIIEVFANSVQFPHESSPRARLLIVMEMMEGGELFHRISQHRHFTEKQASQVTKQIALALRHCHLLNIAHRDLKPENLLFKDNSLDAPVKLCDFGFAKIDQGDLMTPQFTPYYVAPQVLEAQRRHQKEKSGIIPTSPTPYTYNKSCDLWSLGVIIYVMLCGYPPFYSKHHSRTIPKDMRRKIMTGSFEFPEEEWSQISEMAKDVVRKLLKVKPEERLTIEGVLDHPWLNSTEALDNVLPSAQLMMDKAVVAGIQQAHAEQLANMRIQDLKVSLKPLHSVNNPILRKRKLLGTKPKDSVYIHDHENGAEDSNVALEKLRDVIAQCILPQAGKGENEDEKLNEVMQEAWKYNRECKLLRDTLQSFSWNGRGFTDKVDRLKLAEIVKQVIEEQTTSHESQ
In short: as §1

266 human kinases [9] = biological target: 266 human kinases (Homo sapiens, UniProt P00519, Y253F); details: Abl(Y253F)(h); 100 μM
In short: as §1

266 human kinases [10] = biological target: 266 human kinases (Homo sapiens, UniProt P06493); details: CDK1/cyclinB(h); 100 μM
Chain of 266 human kinases (Homo sapiens, UniProt P06493) (P06493 whole entry): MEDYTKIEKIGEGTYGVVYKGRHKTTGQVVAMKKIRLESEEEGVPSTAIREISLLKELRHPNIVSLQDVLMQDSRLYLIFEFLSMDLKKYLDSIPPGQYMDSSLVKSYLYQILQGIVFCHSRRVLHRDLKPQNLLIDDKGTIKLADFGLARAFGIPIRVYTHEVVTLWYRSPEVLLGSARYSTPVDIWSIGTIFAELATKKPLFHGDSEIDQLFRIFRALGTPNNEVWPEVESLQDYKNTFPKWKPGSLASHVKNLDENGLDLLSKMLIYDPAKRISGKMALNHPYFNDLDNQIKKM
In short: as §1

266 human kinases [11] = biological target: 266 human kinases (Homo sapiens, UniProt P10721, D816H); details: cKit(D816H)(h); 100 μM
In short: as §1

266 human kinases [12] = biological target: 266 human kinases (Homo sapiens, UniProt Q9P0L2); details: MARK1(h); 100 μM
Chain of 266 human kinases (Homo sapiens, UniProt Q9P0L2) (Q9P0L2 whole entry): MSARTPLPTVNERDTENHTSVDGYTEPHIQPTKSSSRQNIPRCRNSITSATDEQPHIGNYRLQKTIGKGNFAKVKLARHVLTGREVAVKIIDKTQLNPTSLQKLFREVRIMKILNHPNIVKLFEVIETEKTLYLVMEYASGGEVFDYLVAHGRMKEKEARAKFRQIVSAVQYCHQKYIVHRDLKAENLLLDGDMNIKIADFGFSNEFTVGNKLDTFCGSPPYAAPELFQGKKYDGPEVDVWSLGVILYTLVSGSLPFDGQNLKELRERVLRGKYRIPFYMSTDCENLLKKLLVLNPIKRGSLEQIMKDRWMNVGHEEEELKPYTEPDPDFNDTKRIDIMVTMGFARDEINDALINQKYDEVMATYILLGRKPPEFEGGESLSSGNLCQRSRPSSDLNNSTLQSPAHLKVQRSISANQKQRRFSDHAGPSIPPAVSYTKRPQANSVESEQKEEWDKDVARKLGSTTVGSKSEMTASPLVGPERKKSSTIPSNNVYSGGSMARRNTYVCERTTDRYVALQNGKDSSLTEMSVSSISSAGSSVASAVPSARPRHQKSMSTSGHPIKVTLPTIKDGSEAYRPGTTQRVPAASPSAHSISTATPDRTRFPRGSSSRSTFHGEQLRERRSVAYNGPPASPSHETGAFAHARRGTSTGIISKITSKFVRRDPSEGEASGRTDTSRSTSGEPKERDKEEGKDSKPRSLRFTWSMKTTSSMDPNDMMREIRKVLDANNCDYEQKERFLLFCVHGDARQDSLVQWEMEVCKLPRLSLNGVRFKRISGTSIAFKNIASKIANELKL
In short: as §1

266 human kinases [13] = biological target: T3, 266 human kinases (Homo sapiens, UniProt Q9UBE8); details: NLK(h); 100 μM
T3 sequence (Q9UBE8 1-527): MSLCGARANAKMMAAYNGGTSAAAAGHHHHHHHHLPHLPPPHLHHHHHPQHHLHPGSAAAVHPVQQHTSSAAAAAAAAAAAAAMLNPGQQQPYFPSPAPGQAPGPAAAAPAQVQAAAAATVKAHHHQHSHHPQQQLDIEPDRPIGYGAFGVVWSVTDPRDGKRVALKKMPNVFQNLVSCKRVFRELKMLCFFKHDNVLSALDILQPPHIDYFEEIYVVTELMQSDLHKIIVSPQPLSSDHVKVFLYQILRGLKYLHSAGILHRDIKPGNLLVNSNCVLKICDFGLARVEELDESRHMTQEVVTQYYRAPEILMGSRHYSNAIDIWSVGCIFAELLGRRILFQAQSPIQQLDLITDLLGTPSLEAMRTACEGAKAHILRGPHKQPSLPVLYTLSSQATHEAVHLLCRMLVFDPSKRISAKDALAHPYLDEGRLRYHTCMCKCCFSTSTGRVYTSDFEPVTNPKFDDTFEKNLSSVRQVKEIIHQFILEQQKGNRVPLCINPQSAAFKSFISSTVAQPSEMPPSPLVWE
In short: as §1

266 human kinases [14] = biological target: 266 human kinases (Homo sapiens, UniProt Q9Y243); details: PKBγ(h); 100 μM
Chain of 266 human kinases (Homo sapiens, UniProt Q9Y243) (Q9Y243 whole entry): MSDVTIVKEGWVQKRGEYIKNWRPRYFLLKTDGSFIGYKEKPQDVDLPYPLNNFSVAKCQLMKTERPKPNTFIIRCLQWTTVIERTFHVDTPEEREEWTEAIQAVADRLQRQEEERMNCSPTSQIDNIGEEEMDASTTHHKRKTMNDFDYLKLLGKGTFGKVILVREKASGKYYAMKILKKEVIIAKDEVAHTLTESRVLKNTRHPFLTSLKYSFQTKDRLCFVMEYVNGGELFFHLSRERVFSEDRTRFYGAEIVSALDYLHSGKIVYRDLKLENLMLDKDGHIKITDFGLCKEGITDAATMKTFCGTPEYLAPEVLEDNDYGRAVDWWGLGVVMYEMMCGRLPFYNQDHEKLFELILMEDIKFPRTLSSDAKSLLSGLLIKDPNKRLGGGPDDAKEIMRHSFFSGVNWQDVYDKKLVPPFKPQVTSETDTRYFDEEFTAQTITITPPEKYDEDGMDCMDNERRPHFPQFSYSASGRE
In short: as §1

266 human kinases [15] = biological target: 266 human kinases (Homo sapiens, UniProt P07333, Y969C); details: Fms(Y969C)(h); 100 μM
In short: as §1

Sequence | % activity (266 human kinases [1]) | % activity (266 human kinases [2]) | % activity (266 human kinases [3]) | % activity (266 human kinases [4]) | % activity (266 human kinases [5]) | % activity (266 human kinases [6]) | % activity (266 human kinases [7]) | % activity (266 human kinases [8]) | % activity (266 human kinases [9]) | % activity (266 human kinases [10]) | % activity (266 human kinases [11]) | % activity (266 human kinases [12]) | % activity (266 human kinases [13]) | % activity (266 human kinases [14]) | % activity (266 human kinases [15])
HRRIKAWLKKIKALARQLGVAA (mammal) [MMI-0500] | 51% | 85% | 13% | 0% | 40% | 5% | 50% | 95% | 29% | 57% | 194% | 110% | 19% | 20% | –
YARAAARQARAKALNRQLGVA (mammal) [MMI-0200] | – | – | – | – | – | – | – | – | – | – | – | – | – | – | 88%

Reference: patent publication US20140072613A1, “Compositions and Methods for Treating Cutaneous Scarring” (priority 2012, published 2014)
